From publication PMC3900769 (Journal of molecular biology, 2009)
Several values for one entry are separate records, joined by “and”; a condition that tells them apart may be missing. Equal values may be shown once.

Key:
[1] = target: HPV11 MBP-E6 4C/4S (human papillomavirus type 11) (UniProt P04019); assay: SEC
[2] = target: HPV11 E6 4C/4S separated from the MBP tag (human papillomavirus type 11) (UniProt P04019); assay: SEC
[3] = target: E6AP peptide (Homo sapiens) (UniProt Q05086); assay: SPR; details: cited from earlier work
Sequence of E6AP peptide (Homo sapiens) (Q05086 whole entry): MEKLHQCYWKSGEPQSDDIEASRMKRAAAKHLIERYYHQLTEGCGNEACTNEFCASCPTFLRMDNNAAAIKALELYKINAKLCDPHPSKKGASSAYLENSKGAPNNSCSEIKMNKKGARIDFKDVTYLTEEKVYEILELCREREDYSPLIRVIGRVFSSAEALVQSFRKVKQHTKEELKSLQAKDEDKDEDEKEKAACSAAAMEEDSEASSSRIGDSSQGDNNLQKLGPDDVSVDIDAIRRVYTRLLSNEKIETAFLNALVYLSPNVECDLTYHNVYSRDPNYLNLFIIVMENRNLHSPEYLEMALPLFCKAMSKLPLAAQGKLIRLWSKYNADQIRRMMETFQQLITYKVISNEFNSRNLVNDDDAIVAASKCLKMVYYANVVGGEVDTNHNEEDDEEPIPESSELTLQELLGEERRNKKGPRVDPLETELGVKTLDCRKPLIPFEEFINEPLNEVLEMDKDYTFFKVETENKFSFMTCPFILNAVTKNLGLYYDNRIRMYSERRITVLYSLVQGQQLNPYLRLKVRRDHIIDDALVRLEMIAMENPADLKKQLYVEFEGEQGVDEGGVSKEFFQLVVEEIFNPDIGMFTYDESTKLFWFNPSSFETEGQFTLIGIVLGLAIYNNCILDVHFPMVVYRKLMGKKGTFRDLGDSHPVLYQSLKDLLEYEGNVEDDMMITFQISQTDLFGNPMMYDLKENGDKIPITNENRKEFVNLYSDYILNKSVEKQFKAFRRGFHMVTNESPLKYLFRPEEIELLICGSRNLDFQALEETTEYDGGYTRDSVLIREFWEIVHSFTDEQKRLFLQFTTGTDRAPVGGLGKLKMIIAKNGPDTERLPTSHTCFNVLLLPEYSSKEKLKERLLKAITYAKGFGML

SEC = target: the molecule itself; assay: SEC

For “HPV11 MBP-E6 4C/4S (from UniProt P04019 1-150) (natural protein)”, which stoichiometry N [1] is on record?
The stoichiometry N was 2 and 3.

For “HPV11 E6 4C/4S separated from the MBP tag (from UniProt P04019 1-150) (natural protein)”, which stoichiometry N [2] is on record?
The stoichiometry N was 3 and 2.

Which Kd [3] does the source give for HPV18 E6 (from UniProt P06463) here?
The Kd was 30 µM.

B1: wild-type BPV1 MBP-E6 (natural protein)
chain: MDLKPFARTNPFSGLDCLWCREPLTEVDAFRCMVKDFHVVIREGCRYGACTICLENCLATERRLWQGVPVTGEEAELLHGKTLDRLCIRCCYCGGKLTKNEKHRHVLFNEPFCKTRANIIRGRCYDCCRHGSRSKYP
Does B1 bind (SEC)?
Result: binds

B2: wild-type HPV11 MBP-E6 (natural protein)
chain: MESKDASTSATSIDQLCKTFNLSLHTLQIQCVFCRNALTTAEIYAYAYKNLKVVWRDNFPFAACACCLELQGKINQYRHFNYAAYAPTVEEETNEDILKVLIRCYLCHKPLCEIEKLKHILGKARFIKLNNQWKGRCLHCWTTCMEDLLP
Which “stoichiometry N” value (SEC) does the source give for B2 here?
Its value is 2.
